# In patent US20230201308A1, “TREATMENT OF CORONAVIRUS INFECTION WITH […]” (Eiger Biopharmaceuticals, Inc., priority 2020, published 2023):
# Read-outs that look alike come from different tables or passages of the source.
# System: SARS-CoV-2
# [1] = Treated within 5 days of symptom onset, n=800 vs placebo 879
# [2] = Unvaccinated population, n=143 vs placebo 176
# [3] = final, treatment ≤3 days of symptom onset
# [4] = high-risk patients, pooled Brazil+Toronto
# [5] = intention-to-treat, N = 931 vs placebo N = 1018
# [6] = treatment within 3 days of symptom onset
# [7] = unvaccinated patients, treatment within 3 days of symptoms
# [8] = ≤3 days of symptoms before treatment, preliminary
molecule,measurement,setting,value
"pegylated interferon lambda-1a (protein, PEG, 180 mcg subcutaneous injection) MKPTTTGKGCHIGRFKSLSPQELASFKKARDALEESLKLKNWSCSSPVFPGNWDLRLLQVRERPVALEAELALTLKVLEAAAGPALEDVLDQPLHTLHHILSQLQACIQPQPTAGPRPRGRLHHWLHRLQEAPKKESAGCLEASVTFNLFRLLTRDLKYVADGNLSLRTSTHPEST","Hospitalization or ER (any duration) for COVID-19, RR (95% CrI) vs placebo",[1],"0.73 (0.56, 0.94)"
same,"Hospitalization or ER ≥6 h for COVID-19, % of patients",[1],(2.5%)
same,"Hospitalization or ER ≥6 h for COVID-19, Pr (Superiority)",[1],1.000
same,"Hospitalization or ER ≥6 h for COVID-19, RR (95% CrI) vs placebo",[1],"0.45 (0.26, 0.72)"
same,"Death due to COVID-19, % of patients",[2],0 (0%)
same,"Death due to COVID-19, RR (95% CrI) vs placebo",[2],"0.51 (0.02, 6.47)"
same,"Death or hospitalization due to COVID-19, % of patients",[2],4.2%
same,"Death or hospitalization due to COVID-19, RR (95% CrI) vs placebo",[2],"0.49 (0.19, 1.12)"
same,"Hospitalization for COVID-19, % of patients",[2],4.2%
same,"Hospitalization for COVID-19, RR (95% CrI) vs placebo",[2],"0.49 (0.19, 1.12)"
same,"Hospitalization or ER (any duration) for COVID-19, % of patients",[2],16.1%
same,"Hospitalization or ER (any duration) for COVID-19, Pr (Superiority)",[2],0.806
same,"Hospitalization or ER (any duration) for COVID-19, RR (95% CrI) vs placebo",[2],"0.82 (0.50, 1.29)"
same,"Hospitalization or ER ≥6 h for COVID-19, % of patients",[2],4.2%
same,"Hospitalization or ER ≥6 h for COVID-19, Pr (Superiority)",[2],0.967
same,"Hospitalization or ER ≥6 h for COVID-19, RR (95% CrI) vs placebo",[2],"0.46 (0.18, 1.05)"
same,deaths in the arm,early treated patients,no deaths
same,COVID-19 deaths in the treatment arm,final ITT,one
same,"Hazard ratio, COVID-19-related hospitalization or death (all-cause death)",final ITT,0.59
same,"hazard ratio, COVID-19 death",final ITT,0.22
same,"hazard ratio, risk of hospitalization",final ITT,0.57
same,"relative risk, COVID-19-related hospitalization alone",final ITT,0.57
same,"risk reduction, COVID-19-related hospitalization or all-cause death",final ITT,41%
same,"relative risk, primary outcome","final ITT, 931 vs placebo 1018",0.49
same,"participants experiencing a primary outcome event, %","final ITT, n=931",2.7%
same,"participants experiencing a primary outcome event, count","final ITT, n=931",25 of 931
same,"absolute risk reduction (with 95% Bayesian credible intervals) plotted, FIG. 14","final ITT, patients receiving peginterferon lambda","0.028 (0.018, 0.039)"
same,"relative risk, primary outcome","final, treatment within 3 days of symptom onset",0.42
same,"Hazard ratio, COVID-19-related hospitalization or death",[3],0.35
same,"risk reduction, COVID-19-related hospitalization or death",[3],65%
same,"RR, All-cause mortality or Hospitalization","high-risk patients, Brazil",0.69
same,"RR, Death or Hospitalization due to COVID-19","high-risk patients, Brazil",0.63
same,"RR, Hospitalization or ER visit>6 hours","high-risk patients, Brazil",0.49
same,"probability of superiority (Pr), Hospitalization or ER visit>6 hours","high-risk patients, Brazil",0.990
same,"Pr, Hospitalization or ER visit>6 hours",[4],0.990
same,"RR, All-cause mortality or Hospitalization",[4],0.69
same,"RR, Death or Hospitalization due to COVID-19",[4],0.63
same,"RR, Hospitalization or ER visit>6 hours",[4],0.49
same,"participants with primary outcome event, count","human, in vivo",23/929
same,"relative risk, primary outcome","human, in vivo",0.47
same,Days on mechanical ventilation: mean,"intention-to-treat, N = 931",10.2 days
same,Death due to COVID-19: percentage of patients,"intention-to-treat, N = 931",(0.1%)
same,Death due to COVID-19: total (no. of patients),"intention-to-treat, N = 931",1
same,Death or hospitalization due to COVID-19: percentage of patients,"intention-to-treat, N = 931",(2.4%)
same,Death or hospitalization due to COVID-19: total (no. of patients),"intention-to-treat, N = 931",22
same,Hospitalization for COVID-19: percentage of patients,"intention-to-treat, N = 931",(2.3%)
same,Hospitalization for COVID-19: total (no. of patients),"intention-to-treat, N = 931",21
same,Hospitalization or ER (any duration) for COVID-19: percentage of patients,"intention-to-treat, N = 931",(10.6%)
same,Hospitalization or ER (any duration) for COVID-19: total (no. of patients),"intention-to-treat, N = 931",99
same,Hospitalization or ER visit >6 h for COVID-19: percentage of patients,"intention-to-treat, N = 931",(2.7%)
same,Hospitalization or ER visit >6 h for COVID-19: total (no. of patients),"intention-to-treat, N = 931",25
same,"Days on mechanical ventilation: MD (95% CrI), estimated treatment effect",[5],"−4.47 (−6.89, 3.09)"
same,Days on mechanical ventilation: Probability of Superiority (MD),[5],90.5
same,"Days to death for COVID-19: HR (95% CI), estimated treatment effect",[5],"0.22 (0.01, 1.64)"
same,Days to death for COVID-19: Probability of Superiority (HR),[5],90.7
same,"Days to death or hospitalization due to COVID-19: HR (95% CrI), estimated treatment effect",[5],"0.59 (0.35, 0.97)"
same,Days to death or hospitalization due to COVID-19: Probability of Superiority (HR),[5],98.1
same,"Days to hospitalization for COVID-19: HR (95% CrI), estimated treatment effect",[5],"0.57 (0.33, 0.95)"
same,Days to hospitalization for COVID-19: Probability of Superiority (HR),[5],98.5
same,"Days to hospitalization or ER visit >6 h for COVID-19: HR (95% CrI), estimated treatment effect",[5],"0.47 (0.29, 0.73)"
same,Days to hospitalization or ER visit >6 h for COVID-19: Probability of Superiority (HR),[5],>99.9
same,Death due to COVID-19: Probability of Superiority (RR),[5],86.9
same,"Death due to COVID-19: RR (95% CrI), estimated treatment effect",[5],"0.39 (0.05, 1.95)"
same,Death or hospitalization due to COVID-19: Probability of Superiority (RR),[5],97.7
same,"Death or hospitalization due to COVID-19: RR (95% CrI), estimated treatment effect",[5],"0.61 (0.36, 0.99)"
same,Hospitalization for COVID-19: Probability of Superiority (RR),[5],98.3
same,"Hospitalization for COVID-19: RR (95% CrI), estimated treatment effect",[5],"0.58 (0.34, 0.96)"
same,Hospitalization or ER (any duration) for COVID-19: Probability of Superiority (RR),[5],98.1
same,"Hospitalization or ER (any duration) for COVID-19: RR (95% CrI), estimated treatment effect",[5],"0.78 (0.61, 0.99)"
same,Hospitalization or ER visit >6 h for COVID-19: Probability of Superiority (RR),[5],>99.9
same,"Hospitalization or ER visit >6 h for COVID-19: RR (95% CrI), estimated treatment effect",[5],"0.49 (0.30, 0.76)"
same,"relative risk, primary outcome",per protocol analysis (25/931 vs 43/825),0.52
same,fewer COVID-19-related deaths than placebo,preliminary ITT,75%
same,"hazard ratio, COVID-19-related hospitalization",[6],0.35
same,"relative risk, all-cause death",[6],0.19
same,risk reduction in all-cause death,[6],81%
same,risk reduction of COVID-19-related hospitalization,[6],65%
same,Hazard ratio vs. placebo,[7],0.11
same,"risk (hazard) reduction, COVID-19-related hospitalization or death",[7],89%
same,"Risk Reduction (95% BCI), Hospitalizations or Deaths",[8],60% (17-82%)
same,"Risk Reduction (95% BCI), Hospitalizations or ER visits",[8],67% (19-79%)
same,"Risk Reduction (95% BCI), Hospitalizations or Deaths","≤7 days of symptoms before treatment, preliminary",39% (1-64%)
